Data: the supplement of paper PMC10567573

Assay: protein stability index of a GFP-peptide fusion (GPS, HEK-293T) (PSI 1-6); higher = more stable
Conditions: c terminus: native
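Further: lentivirally expressed fusion library, cells FACS-sorted into six equal-sized GFP/DsRed ratio bins, PSI computed from sequencing read fractions per bin weighted by bin number.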

**Q.** With LPALFTDLYSQEITAEEAREALPQ [SNF8 addQ] as the protein, how does the protein stability index (parent: NP_009172.2) read?
**A.** Its protein stability index is 5.05.

**Q.** With CQPISFSGFGAEDDDLGGLGLGPQ [POLD2 addQ] as the protein, how does the protein stability index (parent: NP_006221.1) read?
**A.** Its protein stability index is 2.97.

**Q.** For DGWIRVSSDNVADLHEKYSGSTPQ [PSMB5 addQ], which protein stability index (parent: NP_002788.1) is on record?
**A.** The protein stability index was 3.53.

**Q.** With EQRNSRWNTVLRAVKAKTHHLEPQ [TRPA1 addQ] as the protein, how does the protein stability index (parent: NP_015628.1) read?
**A.** The protein stability index was 4.94.
